T1: Acetyl-Tyr-Val-Ala-Asp-AMC
T1 sequence: YVAD

T2: Acetyl-Asp-Glu-Val-Asp-a-(4-Methyl-Coumaryl-7-Amide)
T2 sequence: DEVD

T3: MORT-1 (FADD), human, full-length (human), Q13158
T3 chain: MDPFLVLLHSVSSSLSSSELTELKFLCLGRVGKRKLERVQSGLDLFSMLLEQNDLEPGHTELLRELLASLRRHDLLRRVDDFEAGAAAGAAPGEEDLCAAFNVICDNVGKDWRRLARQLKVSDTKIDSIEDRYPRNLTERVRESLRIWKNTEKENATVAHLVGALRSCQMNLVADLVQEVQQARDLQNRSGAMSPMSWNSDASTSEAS

T4: TRADD (human, UniProt Q15628 1-312, limits assumed)
T4 construct: Gal4 hybrid in yeast
T4 sequence (looked up): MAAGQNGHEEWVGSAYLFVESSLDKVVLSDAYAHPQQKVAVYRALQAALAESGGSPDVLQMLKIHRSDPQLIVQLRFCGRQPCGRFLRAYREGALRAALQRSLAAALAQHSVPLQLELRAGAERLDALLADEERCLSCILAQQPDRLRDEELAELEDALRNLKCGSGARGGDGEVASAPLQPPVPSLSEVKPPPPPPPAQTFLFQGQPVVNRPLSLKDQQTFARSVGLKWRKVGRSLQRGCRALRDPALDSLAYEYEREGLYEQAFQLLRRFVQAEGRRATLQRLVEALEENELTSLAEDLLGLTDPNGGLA

T5: FLAG-MORT-1 (UniProt Q13158 1-208)
T5 construct: Expressed and 35S-labeled in HeLa cells; yielded proteins of about 27, 28, 32 and 34 kD; also called MORT-1-FLAG fusion protein; not shown: FLAG octapeptide (Eastman Kodak), N-terminal
T5 sequence (looked up): T3 chain

B1: MORT-1 (FADD), human, full-length (other, UniProt Q13158 1-208, looked up)
chain: T3 chain
notes: Gal4 hybrid in yeast; also expressed in mammalian cells; also called HF1
B2: mouse Fas-IC (receptor, UniProt P25446 187-327, looked up)
chain: RKYRKRKCWKRRQDDPESRTSSRETIPMNASNLSLSKYIPRIAEDMTIQEAKKFARENNIKEGKIDEIMHDSIQDTAEQKVQLLLCWYQSHGKSDAYQDLIKGLKKAECRRTLDKFQDMVQKDLGKSTPDTGNENEGQCLE
notes: domain: intracellular domain
B3: GST-mFas-IC (receptor, mouse, UniProt P25446 187-327, looked up)
chain: B2 chain
notes: domain: intracellular domain; Produced in E. coli, attached to glutathione beads; also called GST fusion with the mouse Fas-IC; not shown: glutathione S-transferase (GST) fusion partner
B4: mouse Fas-IC I225N (receptor, UniProt P25446 187-327, looked up)
chain: B2 chain with I60N
notes: domain: intracellular domain; The text says 'Ile to Leu' but labels the mutant I225N; Position as printed; may count on the mature receptor; also called lprcg mutation
B5: mouse Fas-IC I225A (receptor, UniProt P25446 187-327, looked up)
chain: B2 chain with I60A
notes: domain: intracellular domain; Position as printed; may count on the mature receptor
B6: MACHβ1 (ORF-B of MACH) (other, human, UniProt Q14790-5 1-235, looked up)
chain: MDFSRNLYDIGEQLDSEDLASLKFLSLDYIPQRKQEPIKDALMLFQRLQEKRMLEESNLSFLKELLFRINRLDLLITYLNTRKEEMERELQTPGRAQISAYRVMLYQISEEVSRSELRSFKFLLQEEISKCKLDDDMNLLDIFIEMEKRVILGEGKLDILKRVCAQINKSLLKIINDYEEFSKERSSSLEGSPDEFSNDFGQSLPNEKQTSGILSDHQQSQFCKSTGESAQTSQH
notes: Gal4 hybrid in yeast; also expressed in mammalian cells (34 kDa); also called MACH B; MACH ORF-B
B7: human p55-IC (intracellular domain of human p55 TNF receptor, residues 206-426) (receptor, UniProt P19438 235-455, looked up)
chain: RYQRWKSKLYSIVCGKSTPEKEGELEGTTTKPLAPNPSFSPTPGFTPTLGFSPVPSSTFTSSSTYTPGDCPNFAAPRREVAPPYQGADPILATALASDPIPNPLQKWEDSAHKPQSLDTDDPATLYAVVENVPPLRWKEFVRRLGLSDHEIDRLELQNGRCLREAQYSMLATWRRRTPRREATLELLGRVLRDMDLLGCLEDIEEALCGPAALPPAPSLLR
notes: range 206-426; Gal4 hybrid in yeast; Numbering as printed; may count on the mature receptor; also called 206-426 p55; intracellular domain of human p55-R (CD120a)
B8: MACHα1 (C360S) (enzyme)
chain: MDFSRNLYDIGEQLDSEDLASLKFLSLDYIPQRKQEPIKDALMLFQRLQEKRMLEESNLSFLKELLFRINRLDLLITYLNTRKEEMERELQTPGRAQISAYRVMLYQISEEVSRSELRSFKFLLQEEISKCKLDDDMNLLDIFIEMEKRVILGEGKLDILKRVCAQINKSLLKIINDYEEFSKERSSSLEGSPDEFSNGEELCGVMTISDSPREQDSESQTLDKVYQMKSKPRGYCLIINNHNFAKAREKVPKLHSIRDRNGTHLDAGALTTTFEELHFEIKPHDDCTVEQIYEILKIYQLMDHSNMDCFICCILSHGDKGIIYGTDGQEAPIYELTSQFTGLKCPSLAGKPKVFFIQASQGDNYQKGIPVETDSEEQPYLEMDLSSPQTRYIPDEADFLLGMATVNNCVSYRNPAEGTWYIQSLCQSLRERCPRGDDILTILTEVNYEVSNKDDKKNMGKQMPQPTFTLRKKLVFPSD
notes: Gal4 hybrid in yeast; also called MACHα(C360S)
B9: GST-huFas-IC (receptor, human, UniProt P25445 191-335, looked up)
chain: KRKEVQKTCRKHRKENQGSHESPTLNPETVAINLSDVDLSKYITTIAGVMTLSQVKGFVRKNGVNEAKIDEIKNDNVQDTAEQKVQLLRNWHQLHGKKEAYDTLIKDLKKANLCTLAEKIQTIILKDITSDSENSNFRNEIQSLV
notes: domain: intracellular domain; Produced in E. coli, attached to glutathione beads; also called GST fusion with the human Fas-IC; GST-Fas-IC; not shown: glutathione S-transferase (GST) fusion partner
B10: MORT-1 fragment residues 130-245 (MORT-1 DD) (other, human, UniProt Q13158 82-197, looked up)
chain: FEAGAAAGAAPGEEDLCAAFNVICDNVGKDWRRLARQLKVSDTKIDSIEDRYPRNLTERVRESLRIWKNTEKENATVAHLVGALRSCQMNLVADLVQEVQQARDLQNRSGAMSPMS
notes: Gal4 hybrid in yeast; expressed in HeLa cells for the cytotoxicity test; also called MORT 'tail'

The subject of data set [1] is T1, Acetyl-Tyr-Val-Ala-Asp-AMC.
Data set [2] concerns T2, Acetyl-Asp-Glu-Val-Asp-a-(4-Methyl-Coumaryl-7-Amide).
The target in data set [3] is B7. As to the kind of experiment: yeast two-hybrid beta-galactosidase test. The protocol:
(§1) The interaction of the proteins encoded by the Gal4 DNA binding domain and activation-domain constructs (pGBT9 and PGAD-GH) within transfected SFY526 yeasts was assessed by β-galactosidase expression filter assay. […] The intracellular domains of human p55 TNF receptor (p55-IC residues 206-426), human CD40 (CD40-IC, residues 216-277) and human p75 TNF receptor (p75-IC, residues 287-461) as well as lamin, cyclin D and “empty” Gal4 (pGBT9) vectors served as negative controls in the form of DNA-binding domain constructs. SNF-1 and SNF4 served as positive controls in the form of DNA-binding-domain (SNF1) and activation-domain (SNF4) constructs. “Empty” Gal4 vectors (pGAD-GH) also served as negative controls in the form of activation domain constructs. The symbols “++” and “+” used in the presentation of the results of the above analysis denote the development of strong color within 30 and 90 min of the assay, respectively; and “−” denotes no development of color within 24 h.

The target in data set [4] is T3, MORT-1 (FADD), human, full-length …. In words: yeast two-hybrid beta-galactosidase filter assay; activation-domain hybrid against DNA-binding-domain hybrid (row); +++ = strong color within 30 min. Particulars: remark: other sources report otherwise.
The next data set deals with T4, TRADD. As to the kind of experiment: yeast two-hybrid screen of a human B cell library with MORT-1 as bait.
Data set [5] deals with B1. In words: yeast two-hybrid beta-galactosidase test. The protocol: as §1
For a further data set, the target named is T5, FLAG-MORT-1. As to the kind of experiment: in vitro binding of 35S-labeled FLAG-MORT-1 from HeLa extracts to GST fusion on glutathione beads, SDS-PAGE and autoradiography. The protocol:
Glutathione S-transferase (GST) fusions with the wild type or a mutated Fas-IC were produced and adsorbed to glutathione-agarose beads; see Boldin et al., 1995; Current Protocols in Molecular Biology, 1994; Frangioni and Neel, 1993). […] The extracts were prepared in a buffer containing 50 mM Tris-HCl, pH 7.5, 150 mM NaCl, 0.1% NP-40, 1 mM dithiotreitol, 1 mM EDTA, 1 mM phenylmethylsulfonyl fluoride, 20 μg/ml Aprotonin, 20 μg/ml Leupeptin, 10 mM sodium fluoride and 0.1 mM sodium vanadate (1 ml per 5×10⁵ cells).

Data set [6] addresses T6, MACHα1 (human, UniProt Q14790 1-479).
T6 construct: also called CASP-8α1
As to the kind of experiment: yeast two-hybrid test. From the text:
(§2) Except where otherwise indicated, all experimental procedures for the findings presented are as described above (see also Boldin et al., 1995).

In data set [7] the target is B8. In words: yeast two-hybrid test.
Description: as §2

Data set [8] concerns the molecule itself. As to the kind of experiment: yeast two-hybrid beta-galactosidase filter assay; activation-domain hybrid against DNA-binding-domain hybrid (row); + = strong color within 90 min.
Description: The DNA-binding domain constructs were prepared in pGBT9 vectors and the activation domain constructs were prepared in pGAD-GM vectors. […] In the assay, the development of color was determined, where the greater the color development, the greater the interaction between the constructs encoded by the DNA-binding domain and activation domain.
In data set [9] the target is T6, MACHα1. As to the kind of experiment: yeast two-hybrid beta-galactosidase filter assay. On the procedure: (§3) Their interaction was assessed by a β-galactosidase expression filter assay as described in Boldin et al., (1995b). The results are presented in terms of the time required for the development of strong color. […] Except where otherwise indicated, all experimental procedures for the findings presented are as described above (see also Boldin et al., 1995).

The target in data set [10] is B8. As to the kind of experiment: yeast two-hybrid beta-galactosidase filter assay. The protocol:
as §3

The data set “MACHβ1 (ORF-B of MACH)” has as its target B6. As to the kind of experiment: yeast two-hybrid beta-galactosidase filter assay. The protocol: as §3
The data set “yeast two-hybrid test” deals with the molecule itself. As to the kind of experiment: yeast two-hybrid test.
Description: as §2

The values that follow come from patent publication US20040230039A1 (YEDA RESEARCH AND DEVELOPMENT, published 2004).

Changes are numbered by the printed parent chain. Names and notes keep the numbering of the source.

In the case of “GST fusion of the CED3/ICE homology region of MACHα1 (Ser217 through the C-terminus)”, the “cleavage of fluorogenic peptide substrate (AMC release) by bacterial lysates” value in data set [1] is “They had no measurable proteolytic activity, though, against the IL-1β-precursor sequence-derived fluorogenic substrate”; in data set [2], “cleaved effectively the PARP sequence-derived fluorogenic substrate”. With GST fusion of MACHα1 Ser217 till Asp374, in data set [2], the “cleavage of fluorogenic peptide substrate (AMC release) by bacterial lysates” value is listed as “Nor did cleavage occur”. The same measure, in the same setting: under GST fusion of the full-length MACHα1 stands “did not cleave Ac-DEVD-AMC”; under “GST-fused MACH CED3/ICE-homology region with Cys360 replaced by Ser”, “No cleavage was observed”; under “GST fusion of MACHα1 Asp374 through the C-terminus”, “Nor did cleavage occur”. In the case of B1, the binding result in data set [3] is on record as “no binding”; in the data set with TRADD, “binds”. Besides, in data set [4], the time to development of strong color (beta-galactosidase filter assay, yeast two-hybrid) is less than 30 min. As to B2, the binding result in data set [5] is “binds”. For the molecule B3, in the data set with FLAG-MORT-1, the binding result is listed as “binds”. Take B4: the binding result in data set [5] was “no binding”.

For the molecule B5, in data set [5], the binding result is recorded as “no binding”. For B6, the binding result (in the data set with MACHα1 [6]; with MACHα1 (C360S) [7]; in data set [8]) was “binds” throughout. Regarding B7, the binding result with MACHα1 [9], with MACHα1 (C360S) [10] and with MACHβ1 (ORF-B of MACH) was “no binding” each time. Turning to B8, the binding result in the data set “yeast two-hybrid test” is “binds”.

For B9, the binding result in the data set with FLAG-MORT-1 is recorded as “binds”.

With B10, the binding result in data set [5] was “no binding”.
